Laboratory results taken from patent publication US20120039802A1 (published 2012).

What follows are binders tested against T1, human cMet expressed on 3T3 cells (human, UniProt P08581 25-1390) (assay: whole cell phage ELISA, 3T3 human cMet vs 3T3).
T1 construct: whole, on cells; cells fixed with glutaraldehyde; also called cell surface-expressed human cMet; 3T3 cells that over-express human cMet
Procedure, shortened: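 3T3 cells over-expressing human cMet, compared against parental 3T3, seeded at 10⁵ per well and fixed with 0.1% glutaraldehyde for 12 min at 37 C. Blocked peptide-displaying phage bound for 1 h at room temperature. After PBST washes, bound phage was detected with HRP-conjugated anti-M13 antibody.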

T1 sequence (P08581 25-1390): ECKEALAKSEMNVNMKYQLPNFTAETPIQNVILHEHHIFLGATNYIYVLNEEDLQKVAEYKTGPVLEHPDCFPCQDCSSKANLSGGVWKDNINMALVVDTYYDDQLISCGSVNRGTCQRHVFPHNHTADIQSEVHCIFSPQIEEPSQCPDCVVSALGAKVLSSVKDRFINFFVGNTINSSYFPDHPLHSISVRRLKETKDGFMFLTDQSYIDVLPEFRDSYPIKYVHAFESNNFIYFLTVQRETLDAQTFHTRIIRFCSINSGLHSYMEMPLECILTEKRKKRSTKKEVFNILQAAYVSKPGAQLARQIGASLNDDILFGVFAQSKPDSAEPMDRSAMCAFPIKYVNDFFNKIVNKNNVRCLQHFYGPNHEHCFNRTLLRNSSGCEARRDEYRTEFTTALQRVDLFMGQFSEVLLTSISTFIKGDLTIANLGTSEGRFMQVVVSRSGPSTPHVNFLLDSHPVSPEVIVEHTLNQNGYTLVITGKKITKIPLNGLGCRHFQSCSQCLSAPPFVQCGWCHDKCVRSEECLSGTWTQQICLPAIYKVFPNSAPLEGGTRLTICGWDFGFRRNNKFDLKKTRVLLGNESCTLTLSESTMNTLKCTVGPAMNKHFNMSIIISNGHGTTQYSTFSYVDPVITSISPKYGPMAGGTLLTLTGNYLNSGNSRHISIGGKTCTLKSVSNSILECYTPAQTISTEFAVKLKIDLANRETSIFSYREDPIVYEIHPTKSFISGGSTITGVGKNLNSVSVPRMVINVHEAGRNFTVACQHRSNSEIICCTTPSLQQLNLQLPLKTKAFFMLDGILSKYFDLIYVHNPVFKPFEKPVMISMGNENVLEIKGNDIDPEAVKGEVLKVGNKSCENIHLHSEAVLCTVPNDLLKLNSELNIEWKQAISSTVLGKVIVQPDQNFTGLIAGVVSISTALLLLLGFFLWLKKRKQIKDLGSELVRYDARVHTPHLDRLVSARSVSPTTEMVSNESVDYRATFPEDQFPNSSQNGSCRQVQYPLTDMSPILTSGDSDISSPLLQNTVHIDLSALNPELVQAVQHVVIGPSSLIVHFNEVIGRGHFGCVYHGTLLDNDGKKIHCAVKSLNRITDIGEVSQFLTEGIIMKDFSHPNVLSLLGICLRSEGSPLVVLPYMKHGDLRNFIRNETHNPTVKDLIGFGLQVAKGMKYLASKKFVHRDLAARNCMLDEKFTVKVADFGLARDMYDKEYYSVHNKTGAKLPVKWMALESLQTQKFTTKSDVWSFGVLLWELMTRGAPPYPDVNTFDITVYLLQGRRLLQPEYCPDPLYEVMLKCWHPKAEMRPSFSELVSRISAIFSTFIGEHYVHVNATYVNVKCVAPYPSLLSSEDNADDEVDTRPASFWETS

| Binder | WC ELISA (fold over background) [fold] |
| --- | --- |
| AQQASRFTFTDGDSYWWFEDF [525-A07 peptide-displaying phage (SEQ ID NO: 449)] | 1.17 |
| AQREVEEPYWYLDFLSSWRMHE [524-E09 peptide-displaying phage (SEQ ID NO: 451)] | 1.33 |
| AQMGHHWDVQWDYKLFHVARGD [136-D01 peptide-displaying phage (SEQ ID NO: 473)] | 1.23 |
| AQVPDWLSAVVIEKLIEYGMMV [93-C08 peptide-displaying phage (SEQ ID NO: 464)] | 1.37 |
| AGWWSCQWELNVCIWQGT [484-D08 peptide-displaying phage (SEQ ID NO: 016)] | 1.33 |
| AQFPLEFDVPNFSYHWLVSFNP [118-C07 peptide-displaying phage (SEQ ID NO: 460)] | 1.27 |
| AQELFQILEKQMWSDFMEWATP [15-D02 peptide-displaying phage (SEQ ID NO: 474)] | 1.23 |
| AGLYLCDLSIMYCFFQGT [489-A04 peptide-displaying phage (SEQ ID NO: 015)] | 1.33 |
| AQSPYIFPIDDSGRQIFVIQWG [76-D09 peptide-displaying phage (SEQ ID NO: 463)] | 1.23 |
| GDASMCYDGLALRWDQCWPHDP [531-E11 peptide-displaying phage (SEQ ID NO: 404)] | 1.3 |
| AQRPEAHYKLAMSYPIIPRTKT [96-H12 peptide-displaying phage (SEQ ID NO: 452)] | 1.37 |
| AQDPGFSKHSMGHGYPSKMNWG [115-G02 peptide-displaying phage (SEQ ID NO: 471)] | 1.27 |
| AQVGTAEAIMFSDVEDTGVHKF [103-G08 peptide-displaying phage (SEQ ID NO: 459)] | 1.33 |
| AQRWSSPGMSQSFVLEWKWNDN [118-A08 peptide-displaying phage (SEQ ID NO: 453)] | 1.3 |
| AQVGSPMLPSWFSFEANWSS [95-A11 peptide-displaying phage (SEQ ID NO: 456)] | 1.3 |
| AQAYEWWADESIFNHGYYWGHQ [94-B08 peptide-displaying phage (SEQ ID NO: 470)] | 1.2 |
| AQPYYELQDADMLLVVALLSTG [94-F07 peptide-displaying phage (SEQ ID NO: 458)] | 1.2 |

What follows are binders tested against T2, cMet-Fc fusion protein (extracellular domain of the cMet receptor expressed as an Fc-fusion protein) (human, UniProt P08581 25-932) (assay: phage ELISA on cMet-Fc, competitor HGF 100 ng/mL).
T2 construct: extracellular domain; also called soluble cMet-Fc-fusion protein; soluble cMet receptor; not shown: Fc part
Procedure, shortened: (§1)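 Plates coated with 0.5 μg/mL cMet-Fc, with TRAIL-Fc as background, then blocked with 3% BSA. Bound phage detected with HRP anti-M13 antibody.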

T2 sequence (P08581 25-932): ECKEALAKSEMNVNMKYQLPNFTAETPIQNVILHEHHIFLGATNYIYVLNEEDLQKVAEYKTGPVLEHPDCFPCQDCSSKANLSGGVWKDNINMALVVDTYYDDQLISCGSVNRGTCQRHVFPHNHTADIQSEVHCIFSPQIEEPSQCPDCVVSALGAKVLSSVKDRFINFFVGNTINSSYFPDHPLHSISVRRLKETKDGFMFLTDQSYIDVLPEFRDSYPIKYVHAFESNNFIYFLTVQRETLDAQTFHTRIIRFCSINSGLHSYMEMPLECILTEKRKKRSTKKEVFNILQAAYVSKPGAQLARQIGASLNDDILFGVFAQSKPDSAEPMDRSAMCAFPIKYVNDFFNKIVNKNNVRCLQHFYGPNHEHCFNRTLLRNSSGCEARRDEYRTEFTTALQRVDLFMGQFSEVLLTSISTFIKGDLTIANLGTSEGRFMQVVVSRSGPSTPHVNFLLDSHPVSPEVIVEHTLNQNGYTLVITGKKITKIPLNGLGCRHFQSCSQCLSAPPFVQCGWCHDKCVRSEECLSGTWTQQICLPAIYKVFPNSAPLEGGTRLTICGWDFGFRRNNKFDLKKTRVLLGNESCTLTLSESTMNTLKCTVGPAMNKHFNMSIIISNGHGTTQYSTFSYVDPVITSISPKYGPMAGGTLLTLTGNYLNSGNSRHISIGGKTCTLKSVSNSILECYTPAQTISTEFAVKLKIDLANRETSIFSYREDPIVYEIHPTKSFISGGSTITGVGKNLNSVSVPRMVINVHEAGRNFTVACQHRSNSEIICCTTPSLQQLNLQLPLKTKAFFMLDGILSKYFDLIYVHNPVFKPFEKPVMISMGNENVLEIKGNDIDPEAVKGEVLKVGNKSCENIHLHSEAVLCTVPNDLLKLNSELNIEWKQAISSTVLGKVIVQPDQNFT

| Binder | % of binding in the absence of HGF [%] |
| --- | --- |
| AQQASRFTFTDGDSYWWFEDF [525-A07 peptide-displaying phage (SEQ ID NO: 449)] | 93 |
| AQREVEEPYWYLDFLSSWRMHE [524-E09 peptide-displaying phage (SEQ ID NO: 451)] | 100 |
| AQMGHHWDVQWDYKLFHVARGD [136-D01 peptide-displaying phage (SEQ ID NO: 473)] | 85 |
| AQVPDWLSAVVIEKLIEYGMMV [93-C08 peptide-displaying phage (SEQ ID NO: 464)] | 101 |
| AGWWSCQWELNVCIWQGT [484-D08 peptide-displaying phage (SEQ ID NO: 016)] | 105 |
| AQFPLEFDVPNFSYHWLVSFNP [118-C07 peptide-displaying phage (SEQ ID NO: 460)] | 100 |
| AQELFQILEKQMWSDFMEWATP [15-D02 peptide-displaying phage (SEQ ID NO: 474)] | 97 |
| AGLYLCDLSIMYCFFQGT [489-A04 peptide-displaying phage (SEQ ID NO: 015)] | 30 |
| AQSPYIFPIDDSGRQIFVIQWG [76-D09 peptide-displaying phage (SEQ ID NO: 463)] | 79 |
| GDASMCYDGLALRWDQCWPHDP [531-E11 peptide-displaying phage (SEQ ID NO: 404)] | 61 |
| AQRPEAHYKLAMSYPIIPRTKT [96-H12 peptide-displaying phage (SEQ ID NO: 452)] | 88 |
| AQDPGFSKHSMGHGYPSKMNWG [115-G02 peptide-displaying phage (SEQ ID NO: 471)] | 59 |
| AQVGTAEAIMFSDVEDTGVHKF [103-G08 peptide-displaying phage (SEQ ID NO: 459)] | 140 |
| AQRWSSPGMSQSFVLEWKWNDN [118-A08 peptide-displaying phage (SEQ ID NO: 453)] | 85 |
| AQVGSPMLPSWFSFEANWSS [95-A11 peptide-displaying phage (SEQ ID NO: 456)] | 109 |
| AQAYEWWADESIFNHGYYWGHQ [94-B08 peptide-displaying phage (SEQ ID NO: 470)] | 111 |
| AQPYYELQDADMLLVVALLSTG [94-F07 peptide-displaying phage (SEQ ID NO: 458)] | 106 |

The binders below were run against T2, cMet-Fc fusion protein (extracellular …) (assay: phage ELISA, cMet-Fc vs TRAIL-Fc).
Procedure, shortened: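 Plates coated overnight at 4 C with 0.5 μg/mL cMet-Fc, or TRAIL-Fc as background, were blocked with 3% BSA in PBST. Peptide-displaying phage were bound 2 h at room temperature. Bound phage were detected with HRP-conjugated anti-M13 antibody.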

| Binder | Protein ELISA (fold over background) [fold] |
| --- | --- |
| AQQASRFTFTDGDSYWWFEDF [525-A07 peptide-displaying phage (SEQ ID NO: 449)] | 7 |
| AQREVEEPYWYLDFLSSWRMHE [524-E09 peptide-displaying phage (SEQ ID NO: 451)] | 8.2 |
| AQMGHHWDVQWDYKLFHVARGD [136-D01 peptide-displaying phage (SEQ ID NO: 473)] | 3.7 |
| AQVPDWLSAVVIEKLIEYGMMV [93-C08 peptide-displaying phage (SEQ ID NO: 464)] | 4.4 |
| AGWWSCQWELNVCIWQGT [484-D08 peptide-displaying phage (SEQ ID NO: 016)] | 4.1 |
| AQFPLEFDVPNFSYHWLVSFNP [118-C07 peptide-displaying phage (SEQ ID NO: 460)] | 5.6 |
| AQELFQILEKQMWSDFMEWATP [15-D02 peptide-displaying phage (SEQ ID NO: 474)] | 3.6 |
| AGLYLCDLSIMYCFFQGT [489-A04 peptide-displaying phage (SEQ ID NO: 015)] | 4.3 |
| AQSPYIFPIDDSGRQIFVIQWG [76-D09 peptide-displaying phage (SEQ ID NO: 463)] | 4.4 |
| GDASMCYDGLALRWDQCWPHDP [531-E11 peptide-displaying phage (SEQ ID NO: 404)] | 3.4 |
| AQRPEAHYKLAMSYPIIPRTKT [96-H12 peptide-displaying phage (SEQ ID NO: 452)] | 35.3 |
| AQDPGFSKHSMGHGYPSKMNWG [115-G02 peptide-displaying phage (SEQ ID NO: 471)] | 3.7 |
| AQVGTAEAIMFSDVEDTGVHKF [103-G08 peptide-displaying phage (SEQ ID NO: 459)] | 5.7 |
| AQRWSSPGMSQSFVLEWKWNDN [118-A08 peptide-displaying phage (SEQ ID NO: 453)] | 11.3 |
| AQVGSPMLPSWFSFEANWSS [95-A11 peptide-displaying phage (SEQ ID NO: 456)] | 7 |
| AQAYEWWADESIFNHGYYWGHQ [94-B08 peptide-displaying phage (SEQ ID NO: 470)] | 3.8 |
| AQPYYELQDADMLLVVALLSTG [94-F07 peptide-displaying phage (SEQ ID NO: 458)] | 6.1 |

What follows are binders tested against T2, cMet-Fc fusion protein (extracellular …) (assay: phage ELISA on cMet-Fc, competitor HGF 500 ng/mL).
Procedure, shortened: as §1

| Binder | % of binding in the absence of HGF [%] |
| --- | --- |
| AQQASRFTFTDGDSYWWFEDF [525-A07 peptide-displaying phage (SEQ ID NO: 449)] | 88 |
| AQREVEEPYWYLDFLSSWRMHE [524-E09 peptide-displaying phage (SEQ ID NO: 451)] | 93 |
| AQMGHHWDVQWDYKLFHVARGD [136-D01 peptide-displaying phage (SEQ ID NO: 473)] | 149 |
| AQVPDWLSAVVIEKLIEYGMMV [93-C08 peptide-displaying phage (SEQ ID NO: 464)] | 96 |
| AGWWSCQWELNVCIWQGT [484-D08 peptide-displaying phage (SEQ ID NO: 016)] | 90 |
| AQFPLEFDVPNFSYHWLVSFNP [118-C07 peptide-displaying phage (SEQ ID NO: 460)] | 84 |
| AQELFQILEKQMWSDFMEWATP [15-D02 peptide-displaying phage (SEQ ID NO: 474)] | 118 |
| AGLYLCDLSIMYCFFQGT [489-A04 peptide-displaying phage (SEQ ID NO: 015)] | 13 |
| AQSPYIFPIDDSGRQIFVIQWG [76-D09 peptide-displaying phage (SEQ ID NO: 463)] | 87 |
| GDASMCYDGLALRWDQCWPHDP [531-E11 peptide-displaying phage (SEQ ID NO: 404)] | 33 |
| AQRPEAHYKLAMSYPIIPRTKT [96-H12 peptide-displaying phage (SEQ ID NO: 452)] | 64 |
| AQDPGFSKHSMGHGYPSKMNWG [115-G02 peptide-displaying phage (SEQ ID NO: 471)] | 0 |
| AQVGTAEAIMFSDVEDTGVHKF [103-G08 peptide-displaying phage (SEQ ID NO: 459)] | 95 |
| AQRWSSPGMSQSFVLEWKWNDN [118-A08 peptide-displaying phage (SEQ ID NO: 453)] | 74 |
| AQVGSPMLPSWFSFEANWSS [95-A11 peptide-displaying phage (SEQ ID NO: 456)] | 108 |
| AQAYEWWADESIFNHGYYWGHQ [94-B08 peptide-displaying phage (SEQ ID NO: 470)] | 121 |
| AQPYYELQDADMLLVVALLSTG [94-F07 peptide-displaying phage (SEQ ID NO: 458)] | 104 |
